Laboratory results taken from patent publication US20220056141A1 (DEUTSCHES KREBSFORSCHUNGSZENTRUM STIFTUNG DES OFFENTLICHEN …, published 2022).

Experiments:
[1] = target: T1, His tagged, recombinant FLT3 protein (Sino Biologicals) (human, UniProt P36888 27-541, limits assumed); assay: SPR (Biacore X); antibody captured on protein A chip, His-tagged recombinant FLT3 in solution
T1 construct: Bought protein; also called soluble recombinant FLT3 protein; not shown: His tag
T1 sequence (looked up): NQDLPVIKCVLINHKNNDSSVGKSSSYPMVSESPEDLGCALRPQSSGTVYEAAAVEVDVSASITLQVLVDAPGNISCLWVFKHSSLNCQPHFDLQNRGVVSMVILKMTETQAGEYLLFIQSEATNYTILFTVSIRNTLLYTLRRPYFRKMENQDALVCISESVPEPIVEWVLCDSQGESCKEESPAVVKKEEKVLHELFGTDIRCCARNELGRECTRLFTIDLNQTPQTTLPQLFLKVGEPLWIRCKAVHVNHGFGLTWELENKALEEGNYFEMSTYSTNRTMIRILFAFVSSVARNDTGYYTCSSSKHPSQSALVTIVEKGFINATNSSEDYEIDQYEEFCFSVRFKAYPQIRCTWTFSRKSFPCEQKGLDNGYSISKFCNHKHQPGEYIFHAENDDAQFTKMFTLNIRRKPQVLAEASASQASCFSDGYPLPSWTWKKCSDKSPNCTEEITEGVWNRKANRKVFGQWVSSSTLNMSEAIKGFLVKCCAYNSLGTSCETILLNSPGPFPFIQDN
Protocol: FIG. 3 depicts binding of different CC-2 variants to soluble recombinant FLT3 protein. Respective antibody variants were immobilized to a Biacore chip coated with protein A and binding of His tagged, recombinant FLT3 protein (Sino Biologicals) was determined using a Biacore X instrument (GE Healthcare). Shown are the results of various mutated variants of the FLT3 antigen binding domain (V1 to V5).
In FIG. 3 the binding of different FLT3 binding domain variants V1 to V5 as indicated above was tested for their dissociation constant using a soluble recombinant FLT3 protein. Respective antibody variants were immobilized to a Biacore chip coated with protein A and binding of His tagged, recombinant FLT3 protein (Sino Biologicals) was determined using a Biacore X instrument (GE Healthcare).

[2] = target: T2, FLT3 on Nalm16 cells (human, UniProt P36888 27-993); assay: flow cytometry (row 'EC50, FACS binding' under the bars; binding to NALM16 cells of FIG. 4)
T2 construct: whole, on cells; Endogenous FLT3 of the NALM16 leukemia cell line; also called NALM16 (FLT3+); NALM-16 cells expressing FLT3
T2 sequence (looked up): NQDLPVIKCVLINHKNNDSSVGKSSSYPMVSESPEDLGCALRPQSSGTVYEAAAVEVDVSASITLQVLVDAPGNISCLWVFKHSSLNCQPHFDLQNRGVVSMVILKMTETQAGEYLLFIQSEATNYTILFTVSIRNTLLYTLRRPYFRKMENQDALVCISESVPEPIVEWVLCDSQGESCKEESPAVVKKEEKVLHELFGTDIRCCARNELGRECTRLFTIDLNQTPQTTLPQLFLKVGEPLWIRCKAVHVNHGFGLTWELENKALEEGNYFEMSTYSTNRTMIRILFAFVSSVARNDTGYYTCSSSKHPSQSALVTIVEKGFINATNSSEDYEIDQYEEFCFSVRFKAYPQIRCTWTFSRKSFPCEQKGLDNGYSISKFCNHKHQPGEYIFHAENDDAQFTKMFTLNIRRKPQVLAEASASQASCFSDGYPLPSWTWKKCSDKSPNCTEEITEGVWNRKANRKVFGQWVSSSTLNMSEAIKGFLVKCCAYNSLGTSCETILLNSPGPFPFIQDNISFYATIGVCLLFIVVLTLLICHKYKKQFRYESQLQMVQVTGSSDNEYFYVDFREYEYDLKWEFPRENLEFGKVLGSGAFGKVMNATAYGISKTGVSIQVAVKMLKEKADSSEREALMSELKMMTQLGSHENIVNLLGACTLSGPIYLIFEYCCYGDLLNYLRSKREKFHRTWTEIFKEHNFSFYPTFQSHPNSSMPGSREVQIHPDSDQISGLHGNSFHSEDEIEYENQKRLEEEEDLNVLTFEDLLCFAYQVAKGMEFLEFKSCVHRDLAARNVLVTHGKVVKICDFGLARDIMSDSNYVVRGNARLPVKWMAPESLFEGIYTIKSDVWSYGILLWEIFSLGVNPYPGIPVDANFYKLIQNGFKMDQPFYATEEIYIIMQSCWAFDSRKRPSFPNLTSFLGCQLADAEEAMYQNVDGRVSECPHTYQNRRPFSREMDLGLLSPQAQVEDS
Protocol: (§1) In addition, antibody binding affinity was also tested using binding of the antibody to its target(s) as expressed on cells. Analyzed is the binding of CC-2 variants to Nalm16 cells expressing FLT3 (FIG. 4) or Jurkat cells expressing CD3 (FIG. 6). Variants V1 to V9 (with V6 being V6-V6) were produced after transient transfection of CHO cells using the insert sequences listed above. The antibodies were purified by protein A affinity- and size exclusion-chromatography. […] To measure antibody binding to FLT3 and CD3 NALM16 (FLT3+) and Jurkat (CD3+) cells were incubated with the respective variants for 30 min, washed, stained with a goat anti human Fcγ-specific and PE-conjugated secondary antibody (Jackson Immuno Research), washed again and analyzed by flow cytometry (FACSCalibur, BD Biosciences).

[3] = target: T3, CD3 on Jurkat cells (human, UniProt P07766 23-207); assay: flow cytometry (value under the bar; by the legend the EC50 of the binding to Jurkat cells of FIG. 6)
T3 construct: whole, on cells; also called Jurkat (CD3+); human cluster of differentiation 3 (CD3) antigen
T3 sequence (P07766 23-207): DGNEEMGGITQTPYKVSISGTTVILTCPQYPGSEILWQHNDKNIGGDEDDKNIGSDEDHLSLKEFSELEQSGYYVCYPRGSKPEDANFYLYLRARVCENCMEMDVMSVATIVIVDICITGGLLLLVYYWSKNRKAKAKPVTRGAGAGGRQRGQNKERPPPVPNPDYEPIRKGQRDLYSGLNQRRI
Protocol: as §1

| Binder | Kd [1] | koff [1] | kon [1] | EC50 [2] | EC50 [3] |
| --- | --- | --- | --- | --- | --- |
| bispecific FLT3xCD3 IgGsc antibody V2-V6 (CC-2 variant 2) (bispecific antibody, Fc-attenuated IgGsc format; also called Version 2; CC-2 V2) heavy: QVQLVQSGAEVKKPGGSLRLSCAASGYTFTSYWMHWVRQAPGQGLEWIGEIDPSDSYTDYAQKFKDRVTISRDTSKNTLYLQLSSLRAEDTAVYYCARAITTTPFDFWGQGTLVTVSSASTKGPSVFPLAPSSKSTSGGTAALGCLVKDYFPEPVTVSWNSGALTSGVHTFPAVLQSSGLYSLSSVVTVPSSSLGTQTYICNVNHKPSNTKVDKKVEPKSCDKTHTCPPCPAPPVAGPSVFLFPPKPKDTLMISRTPEVTCVVVGVSHEDPEVKFNWYVDGVEVHNAKTKPREEQYNSTYRVVSVLTVLHQDWLNGKEYKCKVSNKQLPSPIEKTISKAKGQPREPQVYTLPPSRDELTKNQVSLTCLVKGFYPSDIAVEWESNGQPENNYKTTPPVLDSDGSFFLYSKLTVDKSRWQQGNVFSCSVMHEALHNHYTQKSLSLSPGKSGDIQMTQSPSSLSASVGDRVTITCRASQDIRNYLNWYQQKPGKAPKLLIYYTSRLESGVPSRFSGSGSGTDYTLTISSLQPEDFATYYCQQGNTLPWTFGQGTKVEIKGGGGSGGGGSGGGGSEVQLVESGGGLVQPGGSLRLSCAASGYSFTGYTMNWVRQAPGKGLEWVALINPYKGVSTYNQKFKDRFTISVDKSKNTAYLQMNSLRAEDTAVYYCARSGYYGDSDWYFDVWGQGTLVTVSS light: not shown | 88 µM | 0.0318 s⁻¹ | 540 M⁻¹ s⁻¹ | 10 nM | – |
| bispecific FLT3xCD3 IgGsc antibody V1-V6 (CC-2 variant 1) (bispecific antibody, Fc-attenuated IgGsc format: VH-CH1-CH2mod-CH3-scFv(UCHT1 V6) heavy chain and VL-CL light chain; also called Version 1; CC-2 V1) heavy: QVQLVQSGAEVKKPGGSLRLSCAASGYTFTSYWMHWVRQAPGQGLEWIGEIDPSDSYTDYAQKFKDRVTISRDTSKNTLYLQLSSLRAEDTAVYYCARAITTTPFDFWGQGTLVTVSSASTKGPSVFPLAPSSKSTSGGTAALGCLVKDYFPEPVTVSWNSGALTSGVHTFPAVLQSSGLYSLSSVVTVPSSSLGTQTYICNVNHKPSNTKVDKKVEPKSCDKTHTCPPCPAPPVAGPSVFLFPPKPKDTLMISRTPEVTCVVVGVSHEDPEVKFNWYVDGVEVHNAKTKPREEQYNSTYRVVSVLTVLHQDWLNGKEYKCKVSNKQLPSPIEKTISKAKGQPREPQVYTLPPSRDELTKNQVSLTCLVKGFYPSDIAVEWESNGQPENNYKTTPPVLDSDGSFFLYSKLTVDKSRWQQGNVFSCSVMHEALHNHYTQKSLSLSPGKSGDIQMTQSPSSLSASVGDRVTITCRASQDIRNYLNWYQQKPGKAPKLLIYYTSRLESGVPSRFSGSGSGTDYTLTISSLQPEDFATYYCQQGNTLPWTFGQGTKVEIKGGGGSGGGGSGGGGSEVQLVESGGGLVQPGGSLRLSCAASGYSFTGYTMNWVRQAPGKGLEWVALINPYKGVSTYNQKFKDRFTISVDKSKNTAYLQMNSLRAEDTAVYYCARSGYYGDSDWYFDVWGQGTLVTVSS light: not shown | 63 µM | 0.022 s⁻¹ | 489 M⁻¹ s⁻¹ | > 10 nM | – |
| bispecific FLT3xCD3 IgGsc antibody V6-V8 (bispecific antibody, Fc-attenuated IgGsc format; also called CC-2 V8) heavy: QVQLQQPGAELVKPGASLKLSCKSSGYTFTSYWMHWVRQRPGHGLEWIGEIDPSDSYKDYNQKFKDKATLTVDRSSNTAYMHLSSLTSDDSAVYYCARAITTTPFDFWGQGTTLTVSSASTKGPSVFPLAPSSKSTSGGTAALGCLVKDYFPEPVTVSWNSGALTSGVHTFPAVLQSSGLYSLSSVVTVPSSSLGTQTYICNVNHKPSNTKVDKKVEPKSCDKTHTCPPCPAPPVAGPSVFLFPPKPKDTLMISRTPEVTCVVVGVSHEDPEVKFNWYVDGVEVHNAKTKPREEQYNSTYRVVSVLTVLHQDWLNGKEYKCKVSNKQLPSPIEKTISKAKGQPREPQVYTLPPSRDELTKNQVSLTCLVKGFYPSDIAVEWESNGQPENNYKTTPPVLDSDGSFFLYSKLTVDKSRWQQGNVFSCSVMHEALHNHYTQKSLSLSPGKSGDIQMTQSPSSLSASVGDRVTITCRASQDIRNYLNWYQQKPGKAPKLLIYYTSRLESGVPSRFSGSGSGTDYTLTISSLQPEDFATYYCQQGNTLPWTFGQGTKVEIKGGGGSGGGGSGGGGSEVQLVESGGGLVQPGGSLRLSCAASGYSFTGYTMNWVRQAPGKGLEWVALINPYKGVSTYNQKFKDRFTISVDDSKNTAYLQMNSLRAEDTAVYYCARSGYYGDSDWYFDVWGQGTLVTVSS light: DIVLTQSPATLSVTPGDSVSLSCRASQSISNNLHWYQQKSHESPRLLIKYASQSISGIPSRFSGSGSGTDFTLSINSVETEDFGVYFCQQSNTWPYTFGGGTKLEIKRTVAAPSVFIFPPSDEQLKSGTASVVCLLNNFYPREAKVQWKVDNALQSGNSQESVTEQDSKDSTYSLSSTLTLSKADYEKHKVYACEVTHQGLSSPVTKSFNRGEC | – | – | – | – | 92 nM |
| bispecific FLT3xCD3 IgGsc antibody V6-V7 (bispecific antibody, Fc-attenuated IgGsc format; also called CC-2 V7) heavy: QVQLQQPGAELVKPGASLKLSCKSSGYTFTSYWMHWVRQRPGHGLEWIGEIDPSDSYKDYNQKFKDKATLTVDRSSNTAYMHLSSLTSDDSAVYYCARAITTTPFDFWGQGTTLTVSSASTKGPSVFPLAPSSKSTSGGTAALGCLVKDYFPEPVTVSWNSGALTSGVHTFPAVLQSSGLYSLSSVVTVPSSSLGTQTYICNVNHKPSNTKVDKKVEPKSCDKTHTCPPCPAPPVAGPSVFLFPPKPKDTLMISRTPEVTCVVVGVSHEDPEVKFNWYVDGVEVHNAKTKPREEQYNSTYRVVSVLTVLHQDWLNGKEYKCKVSNKQLPSPIEKTISKAKGQPREPQVYTLPPSRDELTKNQVSLTCLVKGFYPSDIAVEWESNGQPENNYKTTPPVLDSDGSFFLYSKLTVDKSRWQQGNVFSCSVMHEALHNHYTQKSLSLSPGKSGDIQMTQSPSSLSASVGDRVTITCRASQDIRNYLNWYQQKPGKAPKLLIYYTSRLESGVPSRFSGSGSGTDYTLTISSLQPEDFATYYCQQGNTLPWTFGQGTKVEIKGGGGSGGGGSGGGGSEVQLVESGGGLVQPGGSLRLSCAASGYSFTGYTMNWVRQAPGKGLEWVALINPYKGVSTYADSFKGRFTISVDDSKNTAYLQMNSLRAEDTAVYYCARSGYYGDSDWYFDVWGQGTLVTVSS light: DIVLTQSPATLSVTPGDSVSLSCRASQSISNNLHWYQQKSHESPRLLIKYASQSISGIPSRFSGSGSGTDFTLSINSVETEDFGVYFCQQSNTWPYTFGGGTKLEIKRTVAAPSVFIFPPSDEQLKSGTASVVCLLNNFYPREAKVQWKVDNALQSGNSQESVTEQDSKDSTYSLSSTLTLSKADYEKHKVYACEVTHQGLSSPVTKSFNRGEC | – | – | – | – | 496 nM |
